# Measured values published in publication PMC8121815 (Nature Communications, 2021).
# Legend:
# Test in all cases: ITC
# [1] = target: hTOM70 mutant H583Q (human)
# [2] = target: human TOM70 (106-608) D545A, C-terminal His-tagged (human) (UniProt O94826)
# [3] = target: human TOM70 (106-608) E477A, C-terminal His-tagged (human) (UniProt O94826)
# [4] = target: human TOM70 (106-608) E549A, C-terminal His-tagged (human) (UniProt O94826)
# [5] = target: human TOM70 (106-608) E549I, C-terminal His-tagged (human) (UniProt O94826)
# [6] = target: human TOM70 (106-608) H583Q, C-terminal His-tagged (human) (UniProt O94826)
# Sequence of C-peptide (SARS-CoV-2 orf9b core sequence 44-70) (P0DTD2 44-70 limits assumed): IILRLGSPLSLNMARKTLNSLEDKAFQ
substance,measurement,setting,value
C-peptide (SARS-CoV-2 orf9b core sequence 44-70) (from UniProt P0DTD2 44-70),Kd,[1],0.99 µM
same,Ka,[2],20100 M⁻¹
same,Kd,[2],49.8 µM
same,stoichiometry N,[2],1
same,Ka,[3],3870 M⁻¹
same,Kd,[3],258 µM
same,stoichiometry N,[3],0
same,Ka,[4],43800 M⁻¹
same,Kd,[4],22.8 µM
same,stoichiometry N,[4],1.5
same,Ka,[5],93800 M⁻¹
same,Kd,[5],10.7 µM
same,stoichiometry N,[5],1.7
same,Ka,[6],1.01e+06 M⁻¹
same,stoichiometry N,[6],1.5
